Test results published in the RNAGym collection of RNA variant scans (doi:10.1073/pnas.2313332121).

B1: TPR t1 (parent)
chain: GACCAAUCUGCCCUCAGAGCUCGAGAACAUCUUCGGAUGCAGAGGAGGCAGGCUUCGGUGGCGCGAUAGCGCCAACGUCCUCAACCUCCAAUGCAUCCCACCACAUGAUGAUGCCUGAAGAGCCUUGGUUUUUUG

Variants of: B1
Test: polymerase ribozyme fitness, log enrichment relative to wild type (log ratio); higher = more active; in vitro selection for triplet polymerase activity
Summary of the method: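 Input and output libraries were sequenced on Illumina after a single in vitro selection round, run in triplicate on PCR-built, transcribed mutant libraries of each subunit of a heterodimeric triplet polymerase ribozyme. Selection annealed libraries to a biotinylated primer, the partner subunit and triplets, incubated them frozen at −7 °C, then gel-excised extended constructs for streptavidin-bead capture and RT-PCR. Genotypes with ≥10 input reads and ≥1 read per output were kept. Fitness is the logarithm, taken in base 2, of genotype enrichment divided by wild-type enrichment, using inverse-variance-weighted replicate averages.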

In order of rising “polymerase ribozyme fitness (log ratio)” value:
1. G48A C80G A95C U109G  -7.79
2. A2C G17A G44C G45A C86U U109A U131C  -7.35
3. A41C C104G G107U G110U  -7.15
4. G71C G110C U126C  -7.04
5. U7A G36A A43U U54A C101U U112A  -6.85
6. A29G G60A U109A U112A G122A U130G  -6.7
7. C11U U54G G61U U106A G113C C114A  -6.66
8. G48C C56A C97A C104U U112G  -6.59
9. U21A G45U G63A G113C  -6.02
10. G17A C34U C98U C124A  -5.98
11. G44C C88A U109A  -5.8
12. C114U G117C U133A  -5.74
13. C34G C53A  -5.71
14. G36C G44U A90C C102U  -5.65
15. G19A G51A  -5.49
16. G19A C22A G113C  -4.67
17. C11G C40A C99U  -4.65
18. G39A G57U U116A U125A  -4.53
19. U9G C11A A18G A41U U78G  -4.42
20. G35A A74U C101U  -4.34
21. C15A A27C  -4.33
22. A41U C89U U116A  -4.32
23. C8G C22G G47A G77U  -4.32
24. G57U U87A C89G C104U  -4.28
25. U7A G63U C80A  -4.19
26. C20G G135U  -4.02
27. C86G G113U  -3.98
28. A24G A37U U96C G110U  -3.88
29. C8G C31U G71U G120U  -3.77
30. U38A C62G  -3.68
31. A29G U116A  -3.67
32. G17A A18C C86G  -3.63
33. C56G G110C  -3.6
34. U21A A24G G36U G61C G120U U132A  -3.58
35. A5C G117U  -3.58
36. G51A G71U G77U  -3.39
37. A41G A105U  -3.3
38. G51U C88A U106A U112C  -3.27
39. G48A C62A U81A  -3.27
40. C49U A50C G69A G135U  -3.24
41. C88A A100U C115U  -3.24
42. U59A A91G A100U G113A  -3.07
43. U9G A27U A100U  -3
44. U21C C73A C89A  -2.96
45. C20A C79U C97U C124A G127C  -2.63
46. C70A C86A G113A C123G  -2.59
47. A16G A50U  -2.5
48. G69C U131A  -2.41
49. C28U C86U  -2.31
50. A66G G122A U129C  -2.27
51. C8A G17A C73A  -2.25
52. C20U C56U G93A C114G U129G  -2.17
53. C12U C40U C104A  -2.12
54. A6U A37U C101G C123A U125G U132A  -2.11
55. C56U C73U C88G  -1.95
56. C8U C72A C76A  -1.75
57. C15U A37C C53A  -1.72
58. U9C C56G C88G  -1.64
59. A29U U54A G71C  -1.61
60. C72A A90U C115U  -1.55
61. A74C U96G  -1.28
62. G71U G127A  -1.25
63. A5U U9A U32C A37U C49U G69U G93A  -1.24
64. G48U U54C  -1.22
65. A24G  -1.19
66. C56U U96A  -1.14
67. A37U G110A  -1.04
68. G61A A84U  -0.89
69. C94U C98U G120U G127U  -0.759
70. A5U A18C C124U  -0.683
71. A46U C53A C73A  -0.67
72. C13A C40U C62A C123G  -0.545
73. C8G A46G C72U G110A  -0.393
74. U55C C70U  -0.302
75. C49A  -0.241
76. U78C C79U U106C  0.0469
77. G48U U55G U112A  0.525
78. C8G C40A C89A G120A U132A  0.693
79. U7A C53U A74C  0.916
80. A2G C123U  1.06
81. A5U C8U C40U C123A  1.55
82. G60A C124A  1.81
83. A74U G120A C124G  2
